{
  "source": "patent US20170037117A1",
  "about": "(SALK INSTITUTE FOR BIOLOGICAL STUDIES, published 2017)",
  "binders": {"B1": {"name": "antibody G1 Fab fragment (Fab, V domains shown)", "VH": "EVQLVESGGGLVQPGGSLRLSCAASGFTFSNYWISWVRQAPGKGLEWVAEIRSESDASATHYAEAVKGRFTISRDNAKNSLYLQMNSLRAEDTAVYYCLAYFDYGLAIQNYWGQGTLVTVSS", "VL": "EIVLTQSPATLSLSPGERATLSCKASKRVTTYVSWYQQKPGQAPRLLIYGASNRYLGIPARFSGSGSGTDFTLTISSLEPEDFAVYYCSQSYNYPYTFGQGTKLEIK"}, "B2": {"name": "Human calcitonin (1-32) (peptide)", "peptide": "CGNLSTCMLGTYTQDFNKFHTFPQTAIGVGAP-NH2", "modifications": "ends and bridges not checked"}, "B3": {"name": "Human amylin (1-37) (peptide)", "peptide": "KCNTATCATQRLANFLVHSSNNFGAILSSTNVGSNTY-NH2", "modifications": "ends and bridges not checked"}, "B4": {"name": "human α-CGRP fragment 1-13-COOH (peptide)", "peptide": "ACDTATCVTHRLA-OH", "modifications": "ends and bridges not checked"}, "B5": {"name": "human α-CGRP fragment 1-19-COOH (peptide)", "peptide": "ACDTATCVTHRLAGLLSRS-OH", "modifications": "ends and bridges not checked"}, "B6": {"name": "Human adrenomedullin (1-52) (peptide)", "peptide": "YRQSMNNFQGLRSFGCRFGTCTVQKLAHQIYQFTDKDKDNVAPRSKISPQGY-NH2", "modifications": "ends and bridges not checked"}},
  "key": {"[1]": {"target": "T1, human α-CGRP P29A (19-37) (human)", "T1 construct": "the entry already carries the mutation", "T1 peptide": "SGGVVKNNFVATNVGSKAF-NH2", "test": "Biacore competition, 50 nM G1 Fab + 10 uM peptide over human α-CGRP on chip", "source_text": "(§1) Y axis represents percentage of binding blocked by the presence of the competing peptide compared with the binding in the absence of the competing peptide. […]"}, "[2]": {"target": "T2, human α-CGRP K35A (19-37) (human, not fully specified)", "T2 construct": "the entry already carries the mutation", "T2 peptide": "SGGVVKNNFVPTNVGSAAF-NH2", "test": "Biacore competition, 50 nM G1 Fab + 10 uM peptide over human α-CGRP on chip", "source_text": "as §1"}, "[3]": {"target": "T3, human α-CGRP fragment 26-37 (human)", "T3 peptide": "NFVPTNVGSKAF-NH2", "test": "Biacore competition, 50 nM G1 Fab + 10 uM peptide over human α-CGRP on chip", "source_text": "as §1"}, "[4]": {"target": "B4", "test": "Biacore competition, 50 nM G1 Fab + 10 uM peptide over human α-CGRP on chip", "source_text": "as §1"}, "[5]": {"target": "T4, human α-CGRP K35E (19-37) (human, not fully specified)", "T4 construct": "the entry already carries the mutation", "T4 peptide": "SGGVVKNNFVPTNVGSEAF-NH2", "test": "Biacore competition, 50 nM G1 Fab + 10 uM peptide over human α-CGRP on chip", "source_text": "as §1"}, "[6]": {"target": "T5, human α-CGRP fragment 8-37 (human, C-terminal amide)", "T5 peptide": "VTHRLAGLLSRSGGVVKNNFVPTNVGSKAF", "test": "Biacore competition, 50 nM G1 Fab + 10 uM peptide over human α-CGRP on chip", "source_text": "as §1"}, "[7]": {"target": "B6", "test": "Biacore competition, 50 nM G1 Fab + 10 uM peptide over human α-CGRP on chip", "source_text": "as §1"}, "Human amylin (1-37)": {"target": "B3", "test": "Biacore competition, 50 nM G1 Fab + 10 uM peptide over human α-CGRP on chip", "source_text": "as §1"}, "rat β-CGRP (1-37)": {"target": "T6, rat β-CGRP (1-37) (rat, not fully specified; C-terminal amide; N-terminal biotin when captured on the chip)", "T6 construct": "also called rat β (1-37)", "T6 peptide": "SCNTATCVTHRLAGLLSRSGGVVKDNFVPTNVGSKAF", "test": "Biacore competition, 50 nM G1 Fab + 10 uM peptide over human α-CGRP on chip", "source_text": "as §1"}, "Human calcitonin (1-32)": {"target": "B2", "test": "Biacore competition, 50 nM G1 Fab + 10 uM peptide over human α-CGRP on chip", "source_text": "as §1"}, "rat α-CGRP (1-37)": {"target": "T7, rat α-CGRP (1-37) (rat, not fully specified; C-terminal amide; N-terminal biotin when captured on the chip)", "T7 construct": "also called rat α (1-37); α-rat", "T7 peptide": "T6 peptide with K35E", "test": "Biacore competition, 50 nM G1 Fab + 10 uM peptide over human α-CGRP on chip", "source_text": "as §1"}, "[8]": {"target": "T8, human α-CGRP K35M (19-37) (human, not fully specified)", "T8 construct": "the entry already carries the mutation", "T8 peptide": "SGGVVKNNFVPTNVGSMAF-NH2", "test": "Biacore competition, 50 nM G1 Fab + 10 uM peptide over human α-CGRP on chip", "source_text": "as §1"}, "human α-CGRP 1-37 (WT)": {"target": "T9, human α-CGRP 1-37 (WT) (human, not fully specified; C-terminal amide; N-terminal biotin when captured on the chip; 125I label in the radioligand assay)", "T9 construct": "also called α-human", "T9 peptide": "T6 peptide with S1A, N3D, D25N", "test": "Biacore competition, 50 nM G1 Fab + 10 uM peptide over human α-CGRP on chip", "source_text": "as §1"}, "[9]": {"target": "T10, human α-CGRP fragment 1-36-COOH (human, free C-terminus (not amidated))", "T10 peptide": "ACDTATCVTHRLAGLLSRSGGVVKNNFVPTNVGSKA", "test": "Biacore competition, 50 nM G1 Fab + 10 uM peptide over human α-CGRP on chip", "source_text": "as §1"}, "human β-CGRP (1-37)": {"target": "T11, human β-CGRP (1-37) (human, not fully specified; C-terminal amide; N-terminal biotin when captured on the chip)", "T11 construct": "also called human β (1-37); β-CGRP (WT)", "T11 peptide": "T6 peptide with S1A, V22M, D25S", "test": "Biacore competition, 50 nM G1 Fab + 10 uM peptide over human α-CGRP on chip", "source_text": "as §1"}, "[10]": {"target": "human α-CGRP fragment 19-36-COOH (human, Table 4: not C-terminally amidated (19-36-COOH); paragraph 408 says amidated at the C-terminus)", "test": "Biacore competition, 50 nM G1 Fab + 10 uM peptide over human α-CGRP on chip", "source_text": "as §1"}, "[11]": {"target": "B5", "test": "Biacore competition, 50 nM G1 Fab + 10 uM peptide over human α-CGRP on chip", "source_text": "as §1"}, "antibody G1 Fab fragment": {"target": "B1", "test": "Biacore competition: G1 Fab 50 nM pre-incubated 1 h with 10 uM competing peptide, flowed over N-biotinylated human α-CGRP on SA chip; blocked ligand human α-CGRP", "source_text": "Y axis represents percentage of binding blocked by the presence of the competing peptide compared with the binding in the absence of the competing peptide.\nAll these peptides are amidated at the C-terminus."}},
  "note": "Changes are numbered by the printed parent chain. Ends that are not written are not given here.",
  "data": [
    {"binder": "B1", "values": [
      {"measurement": "percentage of binding blocked", "setting": "[1]", "value": 100, "unit": "%"},
      {"measurement": "percentage of binding blocked", "setting": "[2]", "value": 100, "unit": "%"},
      {"measurement": "percentage of binding blocked", "setting": "[3]", "value": 100, "unit": "%"},
      {"measurement": "binding result", "setting": "[4]", "value": "no binding (tested: 10 uM peptide)"},
      {"measurement": "percentage of binding blocked", "setting": "[5]", "value": 100, "unit": "%"},
      {"measurement": "percentage of binding blocked", "setting": "[6]", "value": 100, "unit": "%"},
      {"measurement": "binding result", "setting": "[7]", "value": "no binding (tested: 10 uM peptide)"},
      {"measurement": "binding result", "setting": "Human amylin (1-37)", "value": "no binding (tested: 10 uM peptide)"},
      {"measurement": "percentage of binding blocked", "setting": "rat β-CGRP (1-37)", "value": 100, "unit": "%"},
      {"measurement": "binding result", "setting": "Human calcitonin (1-32)", "value": "no binding (tested: 10 uM peptide)"},
      {"measurement": "percentage of binding blocked", "setting": "rat α-CGRP (1-37)", "value": 100, "unit": "%"},
      {"measurement": "percentage of binding blocked", "setting": "[8]", "value": 100, "unit": "%"},
      {"measurement": "percentage of binding blocked", "setting": "human α-CGRP 1-37 (WT)", "value": 100, "unit": "%"},
      {"measurement": "percentage of binding blocked", "setting": "[9]", "value": "~40", "unit": "%"},
      {"measurement": "percentage of binding blocked", "setting": "human β-CGRP (1-37)", "value": 100, "unit": "%"},
      {"measurement": "binding result", "setting": "[10]", "value": "no binding (tested: 10 uM peptide)"},
      {"measurement": "binding result", "setting": "[11]", "value": "no binding (tested: 10 uM peptide)"}
    ]},
    {"binder": "B2", "values": [
      {"measurement": "% Binding blocked", "setting": "antibody G1 Fab fragment", "value": 0, "unit": "%"}
    ]},
    {"binder": "B3", "values": [
      {"measurement": "% Binding blocked", "setting": "antibody G1 Fab fragment", "value": 0, "unit": "%"}
    ]},
    {"binder": "B4", "values": [
      {"measurement": "% Binding blocked", "setting": "antibody G1 Fab fragment", "value": 0, "unit": "%"}
    ]},
    {"binder": "B5", "values": [
      {"measurement": "% Binding blocked", "setting": "antibody G1 Fab fragment", "value": 0, "unit": "%"}
    ]},
    {"binder": "B6", "values": [
      {"measurement": "% Binding blocked", "setting": "antibody G1 Fab fragment", "value": 0, "unit": "%"}
    ]}
  ]
}
